T1: Human IL-2Rβ/γ (intermediate affinity IL-2 receptor) (human, UniProt P14784 27-551; P31785 23-369)
T1 construct: whole, on cells; also called IL-2Rβ/γc; IL-2Rβ (CD122) and γ (CD132)
T1 sequence (looked up) 1: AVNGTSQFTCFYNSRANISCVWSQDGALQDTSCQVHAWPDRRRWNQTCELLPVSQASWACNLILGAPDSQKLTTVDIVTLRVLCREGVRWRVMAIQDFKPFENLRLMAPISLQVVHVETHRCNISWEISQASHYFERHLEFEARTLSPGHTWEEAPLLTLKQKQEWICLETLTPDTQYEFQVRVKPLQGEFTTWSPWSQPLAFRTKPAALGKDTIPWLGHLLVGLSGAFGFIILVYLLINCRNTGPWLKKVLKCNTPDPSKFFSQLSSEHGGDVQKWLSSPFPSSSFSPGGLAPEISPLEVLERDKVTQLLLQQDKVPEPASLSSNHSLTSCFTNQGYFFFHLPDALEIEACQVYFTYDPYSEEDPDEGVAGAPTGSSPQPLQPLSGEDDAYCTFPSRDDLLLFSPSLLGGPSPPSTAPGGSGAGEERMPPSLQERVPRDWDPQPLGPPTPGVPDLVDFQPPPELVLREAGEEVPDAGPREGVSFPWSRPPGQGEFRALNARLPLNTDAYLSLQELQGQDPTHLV
T1 sequence (looked up) 2: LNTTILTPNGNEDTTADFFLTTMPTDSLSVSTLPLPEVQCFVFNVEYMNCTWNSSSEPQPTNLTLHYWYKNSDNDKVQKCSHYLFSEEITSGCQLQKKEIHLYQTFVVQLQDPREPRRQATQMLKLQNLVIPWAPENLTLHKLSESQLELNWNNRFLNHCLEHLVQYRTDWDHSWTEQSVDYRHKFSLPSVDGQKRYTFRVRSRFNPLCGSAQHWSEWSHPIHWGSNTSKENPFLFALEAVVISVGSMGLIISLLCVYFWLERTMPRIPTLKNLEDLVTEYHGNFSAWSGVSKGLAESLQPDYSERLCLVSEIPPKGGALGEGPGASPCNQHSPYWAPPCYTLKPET

T2: Human IL-2Rα/β/γ complex (high affinity IL-2 receptor) (human, UniProt P01589 22-272; P14784 27-551; P31785 23-369)
T2 construct: whole, on cells
T2 sequence (looked up) 1: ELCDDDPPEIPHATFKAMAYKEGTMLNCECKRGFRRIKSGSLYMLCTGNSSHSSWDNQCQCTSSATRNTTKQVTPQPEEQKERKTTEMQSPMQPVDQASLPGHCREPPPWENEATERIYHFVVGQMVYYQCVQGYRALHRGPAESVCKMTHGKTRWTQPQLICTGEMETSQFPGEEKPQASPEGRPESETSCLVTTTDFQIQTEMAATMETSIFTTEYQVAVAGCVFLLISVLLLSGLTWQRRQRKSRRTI
T2 sequence (looked up) 2: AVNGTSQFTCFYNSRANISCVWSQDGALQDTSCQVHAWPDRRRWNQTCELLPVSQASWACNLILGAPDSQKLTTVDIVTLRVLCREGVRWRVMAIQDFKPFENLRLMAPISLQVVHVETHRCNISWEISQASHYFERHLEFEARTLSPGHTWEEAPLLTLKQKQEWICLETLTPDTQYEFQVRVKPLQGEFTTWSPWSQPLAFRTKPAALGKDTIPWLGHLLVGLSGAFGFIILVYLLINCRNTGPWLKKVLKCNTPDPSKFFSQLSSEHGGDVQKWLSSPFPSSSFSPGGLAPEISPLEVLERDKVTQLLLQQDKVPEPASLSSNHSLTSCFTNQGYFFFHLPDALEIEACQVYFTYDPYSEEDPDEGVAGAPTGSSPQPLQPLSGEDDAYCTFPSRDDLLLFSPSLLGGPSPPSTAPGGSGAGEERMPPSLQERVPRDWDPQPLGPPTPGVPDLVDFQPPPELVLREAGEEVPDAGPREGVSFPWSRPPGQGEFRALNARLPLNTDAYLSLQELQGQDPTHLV
T2 sequence (looked up) 3: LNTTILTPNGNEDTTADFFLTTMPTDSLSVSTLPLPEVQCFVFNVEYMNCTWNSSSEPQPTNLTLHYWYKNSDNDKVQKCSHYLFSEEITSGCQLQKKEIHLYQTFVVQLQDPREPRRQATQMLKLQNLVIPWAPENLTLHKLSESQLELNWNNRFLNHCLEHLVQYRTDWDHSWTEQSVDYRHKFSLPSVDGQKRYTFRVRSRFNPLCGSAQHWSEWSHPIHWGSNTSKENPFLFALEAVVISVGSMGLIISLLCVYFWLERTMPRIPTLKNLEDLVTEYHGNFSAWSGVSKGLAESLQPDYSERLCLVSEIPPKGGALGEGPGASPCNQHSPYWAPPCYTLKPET


Legend:
[1] = target: T1, Human IL-2Rβ/γ (intermediate affinity …); test: FACS, HH cells; EC50 fold vs T2U0.E44-1
Procedure: (§1) Human cutaneous T cell lymphoma HH cells, malignant non-Hodgkin's lymphoma NK92 cells and cutaneous T cell lymphoma MJ20 cells were used for binding assay. They both constitutively express IL-2Rβ (CD122) and […] (CD132), and NK92 and MJ20 also expresses IL-2Rα (CD25). HH, NK92 and MJ20 cells were cultured following ATCC guidance, then transferred to a 96-plate for binding analysis. Cells were incubated with IL-2/Fc fusion proteins at the indicated concentrations for 30 min at 4° C. to avoid internalization. Binding was detected by 2nd antibody of PE-anti-human Fc at 4° C. for another 30 min. The median fluorescence intensity (MFI) on HH and NK92 cells was measured using FACS.

[2] = target: T1, Human IL-2Rβ/γ (intermediate affinity …); test: FACS, HH cells
Procedure: as §1

[3] = target: T1, Human IL-2Rβ/γ (intermediate affinity …); test: cell-based or functional assay
[4] = target: T2, Human IL-2Rα/β/γ complex (high affinity …); test: FACS, NK92 cells; EC50 fold vs T2U0.E44-1
Procedure: as §1

[5] = target: T2, Human IL-2Rα/β/γ complex (high affinity …); test: cell-based or functional assay
[6] = target: T1, Human IL-2Rβ/γ (intermediate affinity …); test: cell-based or functional assay; remark: listed apart in the source
[7] = target: T2, Human IL-2Rα/β/γ complex (high affinity …); test: FACS, NK92 cells
Procedure: as §1

Affinity reduction [1] [fold] | EC50 [2] [nM] | Human CD8+ T Potency EC50 (STAT5 phosphorylation) [3] [nM] | Human CD8+ T Potency reduction [3] [fold] | Affinity reduction [4] [fold] | Potency in human Treg EC50 [5] [nM] | Potency reduction (Treg) [5] [fold] | Potency in human CD8+ T EC50 [6] [nM] | Potency reduction (CD8+ T) [6] [fold] | EC50 [7] [nM] | Binder
15.8 | 800 | 365 | 100 | – | – | – | – | – | – | W3XX115-T2U0.E44-31.uIgG4V322 (Fc fusion) APTSSSTKKTQLQLEHLLLDLQMILNGINNYKNPKLTRMLTVKFYMPKKATELKHLQCLEEELKPLEEVLNLAQSKNFHLRPRDLISNINVIVLELKGSETTFMCEYADETATIVEFLNRWITFCQSILESKYGPPCPPCPAPEAAGGPSVFLFPPKPKDTLMISRTPEVTCVVVDVSQEDPEVQFNWYVDGVEVHNAKTKPREEQFNSTYRVVSVLTVLHQDWLNGKEYKCKVSNKGLPSSIEKTISKAKGQPREPQVYTLPPCQEEMTKNQVSLWCLVKGFYPSDIAVEWESNGQPENNYKTTPPVLDSDGSFFLYSRLTVDKSRWQEGNVFSCSVMHEALHNHYTQKSLSLSLG heavy: EIQLQQSGPELVKPGASVKVSCKASGYSFTDYNMYWVKQSHGESLEWIGYIDPYNGGTRYNQKFKGKATLTVDKSSSTAFMHLNSLTSEDSAVYYCARNGHWDGAWFAYWGQGTLVTVSAASTKGPSVFPLAPCSRSTSESTAALGCLVKDYFPEPVTVSWNSGALTSGVHTFPAVLQSSGLYSLSSVVTVPSSSLGTKTYTCNVDHKPSNTKVDKRVESKYGPPCPPCPAPEAAGGPSVFLFPPKPKDTLMISRTPEVTCVVVDVSQEDPEVQFNWYVDGVEVHNAKTKPREEQFNSTYRVVSVLTVLHQDWLNGKEYKCKVSNKGLPSSIEKTISKAKGQPREPQVCTLPPSQEEMTKNQVSLSCAVKGFYPSDIAVEWESNGQPENNYKTTPPVLDSDGSFFLVSRLTVDKSRWQEGNVFSCSVMHEALHNHYTQKSLSLSLG light: DIQMNQSPSSLSASLGDTITITCHASQNINVWLSWYQQKPGNIPKLLIYKASNLHTGVPSRFSGSRSGTGFTLTISSLQPEDIATYYCHQGQSYPFTFGSGTKLEIKRTVAAPSVFIFPPSDEQLKSGTASVVCLLNNFYPREAKVQWKVDNALQSGNSQESVTEQDSKDSTYSLSSTLTLSKADYEKHKVYACEVTHQGLSSPVTKSFNRGEC
– | – | – | – | 94 | 36.4 | 1400 | 5110 | 535 | ~515 | W3XX115-T2U0.E44-7.uIgG4V1 (Fc fusion, IL-2 with C-terminal 5 aa (ISTLT) deleted; E44 format, IgG4) APTSSSTKKTQLQLEHLLLDLQMILNGINNYKNPKLTRMLTFKFYMPKKATELKHLQCLEEELKPLEEVLNLAQSKNFHLRPRDLISNINVIVLELKGSETTFMCEYADETATIVEFLNRWITFCQSIESKYGPPCPPCPAPEFLGGPSVFLFPPKPKDTLMISRTPEVTCVVVDVSQEDPEVQFNWYVDGVEVHNAKTKPREEQFNSTYRVVSVLTVLHQDWLNGKEYKCKVSNKGLPSSIEKTISKAKGQPREPQVYTLPPCQEEMTKNQVSLWCLVKGFYPSDIAVEWESNGQPENNYKTTPPVLDSDGSFFLYSRLTVDKSRWQEGNVFSCSVMHEALHNHYTQKSLSLSLG heavy: EIQLQQSGPELVKPGASVKVSCKASGYSFTDYNMYWVKQSHGESLEWIGYIDPYNGGTRYNQKFKGKATLTVDKSSSTAFMHLNSLTSEDSAVYYCARNGHWDGAWFAYWGQGTLVTVSAASTKGPSVFPLAPCSRSTSESTAALGCLVKDYFPEPVTVSWNSGALTSGVHTFPAVLQSSGLYSLSSVVTVPSSSLGTKTYTCNVDHKPSNTKVDKRVESKYGPPCPPCPAPEFLGGPSVFLFPPKPKDTLMISRTPEVTCVVVDVSQEDPEVQFNWYVDGVEVHNAKTKPREEQFNSTYRVVSVLTVLHQDWLNGKEYKCKVSNKGLPSSIEKTISKAKGQPREPQVCTLPPSQEEMTKNQVSLSCAVKGFYPSDIAVEWESNGQPENNYKTTPPVLDSDGSFFLVSRLTVDKSRWQEGNVFSCSVMHEALHNHYTQKSLSLSLG light: DIQMNQSPSSLSASLGDTITITCHASQNINVWLSWYQQKPGNIPKLLIYKASNLHTGVPSRFSGSRSGTGFTLTISSLQPEDIATYYCHQGQSYPFTFGSGTKLEIKRTVAAPSVFIFPPSDEQLKSGTASVVCLLNNFYPREAKVQWKVDNALQSGNSQESVTEQDSKDSTYSLSSTLTLSKADYEKHKVYACEVTHQGLSSPVTKSFNRGEC
17.9 | 904 | 379 | 104 | – | – | – | – | – | – | W3XX115-T2U0.E44-32.uIgG4V322 (Fc fusion) APTSSSTKKTQLQLEHLLLDLQMILNGINNYKNPKLTRMLTIKFYMPKKATELKHLQCLEEELKPLEEVLNLAQSKNFHLRPRDLISNINVIVLELKGSETTFMCEYADETATIVEFLNRWITFCQSILESKYGPPCPPCPAPEAAGGPSVFLFPPKPKDTLMISRTPEVTCVVVDVSQEDPEVQFNWYVDGVEVHNAKTKPREEQFNSTYRVVSVLTVLHQDWLNGKEYKCKVSNKGLPSSIEKTISKAKGQPREPQVYTLPPCQEEMTKNQVSLWCLVKGFYPSDIAVEWESNGQPENNYKTTPPVLDSDGSFFLYSRLTVDKSRWQEGNVFSCSVMHEALHNHYTQKSLSLSLG heavy: EIQLQQSGPELVKPGASVKVSCKASGYSFTDYNMYWVKQSHGESLEWIGYIDPYNGGTRYNQKFKGKATLTVDKSSSTAFMHLNSLTSEDSAVYYCARNGHWDGAWFAYWGQGTLVTVSAASTKGPSVFPLAPCSRSTSESTAALGCLVKDYFPEPVTVSWNSGALTSGVHTFPAVLQSSGLYSLSSVVTVPSSSLGTKTYTCNVDHKPSNTKVDKRVESKYGPPCPPCPAPEAAGGPSVFLFPPKPKDTLMISRTPEVTCVVVDVSQEDPEVQFNWYVDGVEVHNAKTKPREEQFNSTYRVVSVLTVLHQDWLNGKEYKCKVSNKGLPSSIEKTISKAKGQPREPQVCTLPPSQEEMTKNQVSLSCAVKGFYPSDIAVEWESNGQPENNYKTTPPVLDSDGSFFLVSRLTVDKSRWQEGNVFSCSVMHEALHNHYTQKSLSLSLG light: DIQMNQSPSSLSASLGDTITITCHASQNINVWLSWYQQKPGNIPKLLIYKASNLHTGVPSRFSGSRSGTGFTLTISSLQPEDIATYYCHQGQSYPFTFGSGTKLEIKRTVAAPSVFIFPPSDEQLKSGTASVVCLLNNFYPREAKVQWKVDNALQSGNSQESVTEQDSKDSTYSLSSTLTLSKADYEKHKVYACEVTHQGLSSPVTKSFNRGEC
